Laboratory results reported in the supplement of paper PMC9732359.
± gives the uncertainty stated by the source.

Assay: protein stability index of a GFP-peptide fusion (yeast GPS) (PSI 1-4); higher = more stable; sorted into four equal gates, so the index is relative within each strain
Procedure, shortened: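 Peptides tiling yeast proteins in 17-residue segments were fused downstream of GFP, with Cherry expressed from the same plasmid. As a pooled library in yeast, mid-log cultures grown in leucine-free medium were sorted into four equal gates by GFP/Cherry fluorescence ratio. Gate plasmids were PCR-amplified and Illumina-sequenced, and barcodes linked reads to strains. Each peptide received a protein stability index equal to the sum of each gate's read frequency times its gate number.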

Sequence	protein stability index (doa10∆)	protein stability index (pdr5∆)	protein stability index (san1∆)	protein stability index (ubr1∆)
PHTVIRRKTTKQNSSSD [YDL088C/ASM4]	3.14 ± 0.089	3.05 ± 0.079	3.01 ± 0.068	2.9 ± 0.043
TVKLTEIVWTSSLIKAG [RPO31]	1.48 ± 0.058	1.69 ± 0.067	1.24 ± 0.14	1.24 ± 0.063
MAGSQFENGNITGEDEV [RRP45]	3.02 ± 0.095	3.08 ± 0.1	3.13 ± 0.13	2.95 ± 0.09
STSNTPSPPNVIITDGT [YDL088C/ASM4]	2.79 ± 0.031	2.95 ± 0.031	2.9 ± 0.035	2.956 ± 0.029
QITPTVPHSHPSDMVIP [SNF12]	2.69 ± 0.044	2.59 ± 0.045	2.63 ± 0.046	2.59 ± 0.034
ELNDNPAWFNNPRKRAI [YMR153W/NUP53]	3.09 ± 0.089	2.96 ± 0.066	2.48 ± 0.037	2.98 ± 0.051
ITHPGKMELVYVSDSDD [SIR4]	3.24 ± 0.077	3.34 ± 0.075	3.31 ± 0.085	3.25 ± 0.073
FGQASGASTGNANTGFS [YGL172W/NUP49]	3.18 ± 0.28	3.39 ± 0.17	–	–
KVLCLAVAVGNVEMEED [RPL1A]	1.58 ± 0.064	1.67 ± 0.053	1.33 ± 0.09	1.68 ± 0.044
EEVMRIALMGQDNKKIY [ESC2]	2.53 ± 0.07	2.72 ± 0.12	2.2 ± 0.11	2.64 ± 0.051
VISNLVPKLESSRTKFW [YJL039C/NUP192]	2.36 ± 0.26	2.6 ± 0.13	2.48 ± 0.28	2.69 ± 0.2
FDDSDITKFALFAESHD [YML103C/NUP188]	2.71 ± 0.3	–	2.92 ± 0.15	–
NGASVPINLHPSKLVIT [RPL26A]	1.75 ± 0.058	1.83 ± 0.06	1.96 ± 0.067	1.41 ± 0.05
SDERAKLELINRYAYVL [LRP1]	2.55 ± 0.067	3.17 ± 0.16	2.79 ± 0.11	2.93 ± 0.15
SDAEEEEGEYKNAANTE [ISW2]	3.06 ± 0.14	3.44 ± 0.14	3 ± 0.17	3.3 ± 0.093
NNPLVQKKNFLFKPLNK [ARP7]	2.33 ± 0.23	2.51 ± 0.14	2.2 ± 0.28	–
PFTNEAHMWPRVHDQPL [POP3]	–	1.36 ± 0.24	–	–
QAQAQAQAQAQAQAQAQ [GAL11]	2.84 ± 0.032	3.1 ± 0.034	3.101 ± 0.024	3.04 ± 0.033
PERWLPLRDRSTYRPKK [SRP72]	3.29 ± 0.2	3.05 ± 0.22	2.89 ± 0.2	3.64 ± 0.28
VKAILMQRHVKVDGKVR [RPS4A]	3.13 ± 0.15	3.09 ± 0.11	3.55 ± 0.2	2.9 ± 0.086
LEWNMANLLFKKEKLKQ [RPC82]	2.13 ± 0.11	1.45 ± 0.049	1.38 ± 0.13	1.37 ± 0.082
LFGENDTSTQAYEEEEE [NUT1]	3.34 ± 0.09	3.41 ± 0.095	3.5 ± 0.057	3.34 ± 0.075
LHQYYGDDESKIPAVEY [FAS1]	–	2.75 ± 0.21	2.96 ± 0.19	–
LSFIQVRIDLGTIDKLQ [RPO31]	1.37 ± 0.056	1.71 ± 0.056	2.06 ± 0.077	2.67 ± 0.047
SSVMSSPRVEKRSFSST [YOR098C/NUP1]	2.75 ± 0.057	2.23 ± 0.041	2.44 ± 0.052	2.54 ± 0.039
SDEERDDEDDEHNPTIV [AAR2]	3.53 ± 0.086	3.32 ± 0.089	3.09 ± 0.071	3.31 ± 0.11

Sequence	protein stability index (doa10∆)	protein stability index (pdr5∆)	protein stability index (san1∆)	protein stability index (ubr1∆)
GEIVSINQINEAHPTKV [RPL20A]	3.17 ± 0.25	2.98 ± 0.17	3.06 ± 0.06	2.77 ± 0.092
KKINRRNETSVDEEDEN [YCG1]	3.41 ± 0.1	3.38 ± 0.098	2.79 ± 0.14	3.31 ± 0.12
QVRKKQIETINFLRLPA [YDL116W/NUP84]	3.07 ± 0.11	2.89 ± 0.097	2.86 ± 0.07	2.81 ± 0.11
IEKLTDGHLRAPLKHGV [BRR2]	1.72 ± 0.053	2.86 ± 0.058	3.01 ± 0.051	2.04 ± 0.065
SHLYKARLDGHDFLFNT [RPN14]	3.37 ± 0.13	2.88 ± 0.076	3.13 ± 0.07	2.85 ± 0.047
LYGLNLTLRKAKAPSGL [FAS1]	2.92 ± 0.089	2.17 ± 0.12	3.53 ± 0.068	2.42 ± 0.15
FSKIAEYYRIQKQLPQK [ESC2]	3.18 ± 0.16	2.99 ± 0.15	3.26 ± 0.088	3.19 ± 0.17
GYLITPPKHTELLLTTL [SSN2]	1.85 ± 0.062	1.86 ± 0.052	1.54 ± 0.11	1.54 ± 0.031
NSPTSFFDGSASSTPIP [YOR098C/NUP1]	3.19 ± 0.07	2.8 ± 0.049	2.94 ± 0.052	2.84 ± 0.046
VTIREQINIMPSLKAHF [SIR3]	2.53 ± 0.077	2.83 ± 0.075	2.85 ± 0.059	2.68 ± 0.043
VTRLFFICSIIQTVVIS [YML031W/NDC1]	1.23 ± 0.051	1.28 ± 0.046	1.46 ± 0.076	1.75 ± 0.05
KYHYKEEWLNTKDPDEQ [CSN9]	2.86 ± 0.086	3.05 ± 0.099	3.05 ± 0.057	3.05 ± 0.093
AVEKTLALGCHFQDQKN [POP7]	2.42 ± 0.12	3.12 ± 0.11	2.87 ± 0.078	2.78 ± 0.096
YQTKKFYDYIKERSIVV [REC8]	2.49 ± 0.058	2.81 ± 0.054	2.14 ± 0.058	2.72 ± 0.047
ECENEIKTKQMSLKKCQ [SMC2]	2.92 ± 0.25	3.28 ± 0.1	3.22 ± 0.076	3.32 ± 0.058
TEELQTQYATSQKTKTI [SMC2]	3.5 ± 0.24	3.19 ± 0.14	3.11 ± 0.23	3.18 ± 0.093
KEAAAVAEGKSKQDASP [RPL8A]	3.22 ± 0.085	3.29 ± 0.056	3.15 ± 0.044	3.04 ± 0.054
LQHELMISIIKLVTNVV [YML103C/NUP188]	1.54 ± 0.071	1.8 ± 0.048	1.56 ± 0.18	1.57 ± 0.038
GELDVLQIESVTKETVH [PRP8]	2.54 ± 0.054	2.73 ± 0.066	2.55 ± 0.07	2.76 ± 0.064
KNAGLGFKTPKTAIEGS [RPS11A]	3.01 ± 0.047	3.12 ± 0.055	3.11 ± 0.035	3.13 ± 0.041
SEINEILARNDEEMAVL [SNF2]	2.88 ± 0.18	2.64 ± 0.21	3 ± 0.17	3.16 ± 0.099
VRRGNRKRPVPKGATYG [RPL15A]	–	3.27 ± 0.19	3.6 ± 0.18	3.44 ± 0.14
RAVKEIKKFAKLHMGTE [RPL31B]	2.95 ± 0.071	2.94 ± 0.13	3.08 ± 0.08	2.61 ± 0.086
VDKNGAHLYMLEPSGSY [PRE10]	2.04 ± 0.057	2.19 ± 0.064	2.92 ± 0.063	2.52 ± 0.058
LEEFEFKHGPMSLINDA [SMD2]	3.32 ± 0.073	3.22 ± 0.062	3.14 ± 0.059	3.23 ± 0.055
